We go through three molecules from patent US20220119534A1 (DRAGONFLY THERAPEUTICS, published 2022).

Assay [1] concerns the target T1, mFc-hNKG2D (human, UniProt P26718 73-216).
T1 construct: extracellular domain; Made in house (Dragonfly Tx); the order of tag and ECD follows the name mFc-hNKG2D; also called mFc-tagged human NKG2D; not shown: mouse Fc tag
T1 sequence (looked up): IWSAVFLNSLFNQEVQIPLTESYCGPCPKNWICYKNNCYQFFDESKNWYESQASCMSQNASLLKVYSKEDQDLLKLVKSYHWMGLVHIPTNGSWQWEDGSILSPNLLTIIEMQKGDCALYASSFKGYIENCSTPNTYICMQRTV
Kind of assay: SPR Biacore 8K 37 C; mFc-hNKG2D captured on anti-mFc chip, TriNKET as analyte; 1:1 kinetic fit; after 2 wks 40 C at pH 8.0. (In general: SPR reads the build-up and loss of mass on a sensor chip optically.)

In assay [2] the target is T1, mFc-hNKG2D. Kind of assay: SPR Biacore 8K 37 C; mFc-hNKG2D captured on anti-mFc chip, TriNKET as analyte; steady state fit; after 0.02% H2O2 24 h.
In assay [3] the target is T1, mFc-hNKG2D. Put plainly: SPR Biacore 8K 37 C; mFc-hNKG2D captured on anti-mFc chip, TriNKET as analyte; 1:1 kinetic fit; control sample, n=2.
In assay [4] the target is T2, Human CLEC12A-His (human, UniProt Q5QGZ9 65-265).
T2 construct: Recombinant soluble protein made in house; also called hCLEC12A-His; hCLEC12A; not shown: His tag
T2 sequence: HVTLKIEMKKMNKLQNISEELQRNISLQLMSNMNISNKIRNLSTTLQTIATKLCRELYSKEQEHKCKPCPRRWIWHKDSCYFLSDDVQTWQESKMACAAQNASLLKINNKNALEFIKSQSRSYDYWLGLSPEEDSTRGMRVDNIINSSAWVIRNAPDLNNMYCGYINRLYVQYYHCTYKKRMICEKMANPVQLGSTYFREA
Put plainly: SPR; control sample (low pH hold study).

The target of another assay is T3, Human CD16a V158 (human, UniProt P08637 17-208, biotinylated).
T3 construct: Bought recombinant receptor; also called hCD16a (V158); hFcγRIIIa V158
Put plainly: SPR; control sample (low pH hold study).

For assay [5], the target named is T4, mFc-hNKG2D (human, UniProt P26718 73-216).
T4 construct: extracellular domain; Recombinant mFc-tagged NKG2D dimer, made in house; also called human NKG2D; not shown: mouse Fc tag
T4 sequence (looked up): T1 sequence (looked up)
Put plainly: SPR; control sample (low pH hold study).

Assay [6] addresses T2, Human CLEC12A-His. Kind of assay: SPR; taken as the sample after forced oxidation (0.02% H2O2, 24 h).
The target of assay [7] is T4, mFc-hNKG2D. Kind of assay: SPR, 37 C, mFc-hNKG2D captured, steady state fit.
Assay [8] concerns the target T5, human CLEC12A on cells (HL60, PL21, Ba/F3-hCLEC12A) (human, UniProt Q5QGZ9 1-265).
T5 construct: Endogenous on the AML lines HL60 and PL21; brought into mouse Ba/F3 cells by retroviral transduction; The cell line stands under assay; also called CLL-1
T5 sequence: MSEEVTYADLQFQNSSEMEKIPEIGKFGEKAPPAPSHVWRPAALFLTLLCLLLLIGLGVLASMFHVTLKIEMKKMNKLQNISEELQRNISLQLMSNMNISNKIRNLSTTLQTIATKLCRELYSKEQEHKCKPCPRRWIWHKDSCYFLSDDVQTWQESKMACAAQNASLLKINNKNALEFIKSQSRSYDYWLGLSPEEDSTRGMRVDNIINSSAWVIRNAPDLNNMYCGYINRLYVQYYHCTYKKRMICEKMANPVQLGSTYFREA
Put plainly: flow cytometry, Ba/F3-hCLEC12A cells. Background: Flow cytometry measures light scatter and fluorescence of single cells or particles in a stream.

A further assay deals with T6, Cynomolgus CD64 (cynomolgus monkey, UniProt A0A2K5U901 33-309, Probably biotinylated for capture, as in the sister examples (p-1094).).
T6 construct: Bought recombinant receptor; also called cFcγRI; Cynomolgus CD64 (FcγRI); not shown: The vendor's biotinylation and purification tag
Kind of assay: SPR, cynomolgus CD64 captured; average for AB0192.

Assay [9] has as its target T7, Human CLEC12A-His (recombinant, K244 WT) (human, UniProt Q5QGZ9 65-265).
T7 construct: Made in house (Dragonfly Tx); also called hCLEC12A; hCLEC12A-His; not shown: His tag
T7 sequence: T2 sequence
Kind of assay: SPR, two-state fit; after low pH hold.

The next assay has as its target T8, Cynomolgus FcRn (cynomolgus monkey, UniProt Q8SPV9 24-297; Q8SPW0 21-119).
T8 construct: Bought recombinant receptor; also called cFcRn; cyno FcRn
Kind of assay: SPR 25C, pH 6.0, FcRn on chip, steady state fit (n = 3).

Assay [10] concerns the target T9, Human CLEC12A expressed on cells (Ba/F3-hCLEC12A, PL21, HL60) (human, UniProt Q5QGZ9 1-265).
T9 construct: Ba/F3 cells transduced with human CLEC12A; PL21 and HL60 AML lines express it endogenously; also called cell surface expressed CLEC12A
T9 sequence: T5 sequence
Put plainly: flow cytometry on Ba/F3-hCLEC12A cells.

Assay [11] has as its target T10, De-glycosylated human CLEC12A (human, UniProt Q5QGZ9 65-265, treated with PNGaseF (N-linked glycans removed)).
T10 construct: Same recombinant antigen as m2 after PNGaseF; also called De-glycosylated CLEC12A
T10 sequence: T2 sequence
Kind of assay: SPR, two-state fit (ka1).

The target of assay [12] is T11, De-sialylated human CLEC12A (human, UniProt Q5QGZ9 65-265, treated with neuraminidase (terminal sialic acids removed)).
T11 construct: Same recombinant antigen as m2 after neuraminidase; also called De-sialylated CLEC12A
T11 sequence: T2 sequence
Put plainly: SPR, two-state fit (ka1).

In assay [13] the target is T7, Human CLEC12A-His (recombinant, K244 WT). Kind of assay: SPR 37C, AB0089 captured on anti-hFc, two-state fit (ka1).

Residue numbers refer to the chain shown, from its start. In names and notes the source's numbering stands. Several values for one entry are separate records, joined by “and”; a condition that tells them apart may be missing. Equal values may be shown once.

T3 sequence (P08637 17-208 F176V limits assumed): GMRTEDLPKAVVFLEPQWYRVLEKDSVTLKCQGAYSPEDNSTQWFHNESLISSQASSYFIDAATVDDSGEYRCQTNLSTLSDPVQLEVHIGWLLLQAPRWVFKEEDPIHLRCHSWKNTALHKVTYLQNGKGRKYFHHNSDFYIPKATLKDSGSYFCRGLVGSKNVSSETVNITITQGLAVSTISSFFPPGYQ
T6 sequence (A0A2K5U901 entry or part of it limits assumed): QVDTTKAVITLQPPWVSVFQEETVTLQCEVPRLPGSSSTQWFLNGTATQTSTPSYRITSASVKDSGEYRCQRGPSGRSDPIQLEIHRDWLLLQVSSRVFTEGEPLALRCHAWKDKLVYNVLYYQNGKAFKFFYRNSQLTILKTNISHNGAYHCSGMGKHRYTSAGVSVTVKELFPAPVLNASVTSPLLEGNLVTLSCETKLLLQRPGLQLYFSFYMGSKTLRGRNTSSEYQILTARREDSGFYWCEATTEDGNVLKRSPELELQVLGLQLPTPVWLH
T8 sequence (Q8SPV9 24-297 limits assumed, chain 1 of 2): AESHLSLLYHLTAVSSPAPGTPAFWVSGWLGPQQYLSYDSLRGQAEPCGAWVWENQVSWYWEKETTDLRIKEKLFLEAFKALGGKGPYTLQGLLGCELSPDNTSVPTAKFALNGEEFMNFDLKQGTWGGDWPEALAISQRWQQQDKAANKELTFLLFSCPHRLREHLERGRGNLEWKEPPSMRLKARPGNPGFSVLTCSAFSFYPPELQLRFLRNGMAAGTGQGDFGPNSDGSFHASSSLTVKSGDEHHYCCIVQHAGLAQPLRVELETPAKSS
T8 sequence (Q8SPW0 21-119 limits assumed, chain 2 of 2): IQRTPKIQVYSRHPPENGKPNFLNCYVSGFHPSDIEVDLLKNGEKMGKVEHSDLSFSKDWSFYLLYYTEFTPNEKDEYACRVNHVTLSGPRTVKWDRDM

B1: F3'-1602 TriNKET (bispecific antibody, human IgG1, kappa)
chain: QLQLQESGPGLVKPSETLSLTCTVSGFSLTNYGLHWIRQPPGKCLEWIGVIWSGGKTDYNPSLKSRVTISKDTSKNQFSLKLSSVQAADTAVYYCAKYDYDDSLDYWGQGTLVTVSSGGGGSGGGGSGGGGSGGGGSDIQMTQSPSSLSASVGDRVTITCHASQNINFWLSWYQQKPGKAPKLLIYEASNLHTGVPSRFSGSGSGTRFTLTISSLQPEDIATYYCQQSHSYPLTFGCGTKLEIKGSDKTHTCPPCPAPELLGGPSVFLFPPKPKDTLMISRTPEVTCVVVDVSHEDPEVKFNWYVDGVEVHNAKTKPREEQYNSTYRVVSVLTVLHQDWLNGKEYKCKVSNKALPAPIEKTISKAKGQPREPRVYTLPPCRDELTKNQVSLTCLVKGFYPSDIAVEWESNGQPENNYKTTPPVLVSDGSFTLYSKLTVDKSRWQQGNVFSCSVMHEALHNHYTQKSLSLSPG
heavy: EVQLVESGGGLVKPGGSLRLSCAASGFTFSSYSMNWVRQAPGKGLEWVSSISSSSSYIYYADSVKGRFTISRDNAKNSLYLQMNSLRAEDTAVYYCARGAPIGAAAGWFDPWGQGTLVTVSSASTKGPSVFPLAPSSKSTSGGTAALGCLVKDYFPEPVTVSWNSGALTSGVHTFPAVLQSSGLYSLSSVVTVPSSSLGTQTYICNVNHKPSNTKVDKKVEPKSCDKTHTCPPCPAPELLGGPSVFLFPPKPKDTLMISRTPEVTCVVVDVSHEDPEVKFNWYVDGVEVHNAKTKPREEQYNSTYRVVSVLTVLHQDWLNGKEYKCKVSNKALPAPIEKTISKAKGQPREPQVCTLPPSRDELTENQVSLTCLVKGFYPSDIAVEWESNGQPENNYKTTPPVLDSDGSFFLYSWLTVDKSRWQQGNVFSCSVMHEALHNHYTQKSLSLSPG
light: DIQMTQSPSSVSASVGDRVTITCRASQGISSWLAWYQQKPGKAPKLLIYAASSLQSGVPSRFSGSGSGTDFTLTISSLQPEDFATYYCQQGVSFPRTFGGGTKVEIKRTVAAPSVFIFPPSDEQLKSGTASVVCLLNNFYPREAKVQWKVDNALQSGNSQESVTEQDSKDSTYSLSSTLTLSKADYEKHKVYACEVTHQGLSSPVTKSFNRGEC
notes: Trispecific F3' format: CLEC12A scFv-Fc paired with NKG2D Fab-Fc; Stressed and control samples of the stability studies are the same molecule; also called AB0237
A word on the Kd: it is the equilibrium constant for the complex coming apart. One may read the koff as the first-order rate constant of dissociation. A low value points to slow dissociation. One may read the kon as the second-order rate constant of association. In the assay with mFc-hNKG2D [1], B1 came in with a Kd of 905 nM, a koff of 0.122 s⁻¹ and an association rate constant (kon) of 135000 M⁻¹ s⁻¹. This molecule yielded an equilibrium dissociation constant (Kd) with mFc-hNKG2D [2] of 732 nM. For the same molecule, in the assay with mFc-hNKG2D [3], the affinity, expressed as Kd, was 790 nM; the koff worked out at 0.153 s⁻¹; the kon stood at 193000 M⁻¹ s⁻¹.

B2: AB0192 TriNKET (other)
chain: EVQLVESGGGVVQPGGSLRLSCAASGFTFNAFGMHWVRQAPGKCLEWVAFISSGSTSIYYANTVKGRFTISRDNSKNTLYLQMNSLRAEDTAVYYCARDGYPTGGAMDYWGQGTSVTVSSGGGGSGGGGSGGGGSGGGGSDIQMTQSPSSLSASVGDRVTITCKASQDIYNYLSWFQQKPGKAPKPLIYRANILVSGVPSRFSGSGSGQDYTFTISSLQPEDIATYYCLQFDAFPFTFGCGTKLEIKGSDKTHTCPPCPAPELLGGPSVFLFPPKPKDTLMISRTPEVTCVVVDVSHEDPEVKFNWYVDGVEVHNAKTKPREEQYNSTYRVVSVLTVLHQDWLNGKEYKCKVSNKALPAPIEKTISKAKGQPREPRVYTLPPCRDELTKNQVSLTCLVKGFYPSDIAVEWESNGQPENNYKTTPPVLVSDGSFTLYSKLTVDKSRWQQGNVFSCSVMHEALHNHYTQKSLSLSPG
heavy: B1 heavy
light: B1 light
notes: the condition stands under assay; also called AB0192 Lot AB0192-005
In general, EC50 refers to the concentration that produces a half-maximal response. Lower therefore signals greater potency. B2: the Kd is 1.83 nM with Human CLEC12A-His [4]; 178 nM in the assay with Human CD16a V158; 779 nM with mFc-hNKG2D [5]; 1.71 nM with Human CLEC12A-His [6]; 770 nM and 783 nM and 788 nM in the assay with mFc-hNKG2D [7]; 1.9 nM with Cynomolgus CD64. In addition, the koff in the assay with Human CLEC12A-His [4] worked out at 0.00125 s⁻¹; with Human CD16a V158, 0.0199 s⁻¹; with mFc-hNKG2D [5], 0.146 s⁻¹; with Human CLEC12A-His [6], 0.00132 s⁻¹; with Cynomolgus CD64, 0.00012 s⁻¹. The kon with Human CLEC12A-His [4] was 685000 M⁻¹ s⁻¹; in the assay with Human CD16a V158 it was 112000 M⁻¹ s⁻¹; with mFc-hNKG2D [5], 188000 M⁻¹ s⁻¹; with Human CLEC12A-His [6], 775000 M⁻¹ s⁻¹; with Cynomolgus CD64 it was 62000 M⁻¹ s⁻¹. The molecule further had an EC50 in assay [8] of 0.91 nM.

B3: AB0089 TriNKET (bispecific antibody, human IgG1, kappa)
chain: B1 chain with S53V, K56A, K71V, Y98G, D101G, S103T, R207D, I220F
heavy: B1 heavy
light: B1 light
notes: F3' format heterodimer of three chains; human IgG1 Fc with EW-RVT and Y349C/S354C mutations; also called AB0089 Lot AB0089-002; CLEC12A TriNKET AB0089
As to B3, the Kd in assay [9] was found to be 0.7 nM; with Cynomolgus FcRn, 1000 nM. The response in [10] was half-maximal at 4.02 nM (EC50). Further, the kon is 8.96e+06 M⁻¹ s⁻¹ in assay [11]; 2.09e+07 M⁻¹ s⁻¹ in assay [12]; 1.1e+07 M⁻¹ s⁻¹ (2×) and 1e+07 M⁻¹ s⁻¹ (2×) in assay [13].
